We go through 53 sequences from the supplement of paper PMC10567573.

A short description of this data set: protein stability index of a GFP-peptide fusion (GPS, HEK-293T) (PSI 1-6); higher = more stable.
[1] abbreviates: treatment: DMSO, c terminus: a fixed tail appended.
[2] abbreviates: treatment: MLN4924 1 uM, 8 h, c terminus: a fixed tail appended.

± gives the standard deviation.
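Also: 24-mer peptide tiles fused after GFP, lentivirally expressed, FACS-sorted into six equal bins by GFP/DsRed ratio, decoded by Illumina sequencing, PSI is the read-weighted mean bin number.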

For SSHHSHSYIGLPYADHNYGARPPP [KMT2E], the protein stability index by setting is: under setting [1], 3.46 ± 0.16; under setting [2], 3.7 ± 0.27.
For SSIPCSGSLDGRELSRQVRSSVEL [PPEF2], in that order: 4.298 ± 0.036 and 4.17 ± 0.13.
The like results for SSLFMDTEKSGKREFDVRQTPQVN [WEE1] were, in that order, 4.58 ± 0.26 and 4.71 ± 0.27.
The like results for SSNGNDNGNGKNGGLEHVPSSSSI [BNIP3L] were, in that order, 5.2 ± 0.29 and 5.33 ± 0.17.
In the case of SSNKKEKKVLNHGYDDDNHDYIVR [DYRK1B], the protein stability index is, setting by setting: under setting [1], 4.55 ± 0.22; under setting [2], 4.45 ± 0.19.
The like results for SSVQSYPGSASLAQSRLEDPGADS [DLX1] were, in that order, 5.23 ± 0.2 and 5.52 ± 0.24.
For STARRSRAASSQRAEEEDDDIKQL [CHMP4C], in that order: 5.59 ± 0.073 and 5.46 ± 0.25.
Turning to STDPNIVRKKERGREEKCVWKHGI [TAF7L], the protein stability index is, setting by setting: under setting [1], 3.31 ± 0.37; under setting [2], 3.51 ± 0.26.
Regarding STDTESNNEEQRSGLIYLTNHIAP [IKZF1], the protein stability index stood at 4.63 ± 0.2 under setting [1] and 4.81 ± 0.21 under setting [2].
The like results for STEDMERALSEYLAVFARCLAGCE [P3H4] were, in that order, 3.59 ± 0.2 and 3.37 ± 0.32.
For STLEESVVRICCIRSFGHFIARLQ [SMG5], the protein stability index stood at 2.29 ± 0.04 under setting [1] and 2.19 ± 0.37 under setting [2].
The like results for STPRPPEASSSPPEGSQDRNTSWG [TLE6] were, in that order, 5.32 ± 0.17 and 5.291 ± 0.047.
Regarding SYSFQNPSSFDPSMLLQRFSVAPH [RNF180], the protein stability index came to 2.58 ± 0.28 under setting [1] and 2.68 ± 0.23 under setting [2].
For TAGEMVFVYENAKEGARNIRTSER [BTBD10], the protein stability index turned out to be 3.94 ± 0.21 under setting [1] and 3.98 ± 0.14 under setting [2].
For TAKDNGEAEDQEEKEDAEKENIEK [SRPK2], in that order: 5.58 ± 0.12 and 5.67 ± 0.25.
For TAYSRLNETQPIDLSGLPLQSSKN [RNF180], in that order: 3.76 ± 0.27 and 3.86 ± 0.25.
The like results for TCICYLCMFQEHKNHSTVTVEEAK [TRIM29] were, in that order, 2.24 ± 0.43 and 2.67 ± 0.51.
Regarding TDLIWKNQNSWGTGEDVKVILKNS [LMNB1], the protein stability index was found to be 3.47 ± 0.44 under setting [1] and 3.74 ± 0.26 under setting [2].
For TETQRLGLAMALEPNTTFLRKSLK [FANCE], in that order: 4.05 ± 0.19 and 4.14 ± 0.16.
For TFTEHPMKYTSEKFLEICKLSGFM [TPRG1], in that order: 2.35 ± 0.48 and 2.22 ± 0.5.
With TGAACRLVEAVLSGEVLNGAAVVR [HDAC6], the protein stability index is 2.13 ± 0.35 under setting [1] and 2.27 ± 0.28 under setting [2].
The like results for TGASFQKAQQEFAAGVFSNPAVRT [SCAMP3] were, in that order, 3.73 ± 0.16 and 3.79 ± 0.25.
The like results for TGGPDACLRCWDQRTIMKPLEYQF [TLE6] were, in that order, 2.29 ± 0.17 and 2.74 ± 0.27.
On to TGGVTALCWDPVQRVLFSGSSDHS [WDFY2], for which the protein stability index was 2.73 ± 0.21 under setting [1] and 2.78 ± 0.59 under setting [2].
The like results for THVLSKEVQHLREEKSKQFLDLME [LRRC45] were, in that order, 3.66 ± 0.26 and 3.81 ± 0.26.
For TIDNDIVSMEIFFKAWLHNSGTDQ [M1AP], in that order: 2.5 ± 0.23 and 2.36 ± 0.084.
For TINNFSFCREEMGEVLKSSTFSSG [SPOPL], in that order: 2.33 ± 0.21 and 2.53 ± 0.28.
Regarding TKVQKKSLLLKKPLRVDLILENTS [NOP53], the protein stability index by setting is: under setting [1], 2.71 ± 0.19; under setting [2], 2.84 ± 0.39.
The like results for TLCKADLEAQVESLKEELMCLKKN [KRT36] were, in that order, 3.51 ± 0.4 and 3.83 ± 0.15.
In turn, TLELCHDELFADLFNSNHKAGGAG [CEBPD] showed a protein stability index under setting [2] of 4.24 ± 1.
For TLFQTESPQSGSILTEETEVKGTL [PBXIP1], the protein stability index amounted to 4.92 ± 0.17 under setting [1] and 4.7 ± 0.25 under setting [2].
Turning to TLTVFPPEETTPSPSRESPLSAP [KLHL13], the protein stability index is 5.16 ± 0.15 (treatment: DMSO, c terminus: native) and 5.18 ± 0.08 (treatment: MLN4924 1 uM, 8 h, c terminus: native).
TNDGNHPSCQETRDYAPPSRGYAY [RBMY1A1] yielded a protein stability index under setting [1] of 4.33 ± 0.12 and a protein stability index under setting [2] of 4.36 ± 0.11.
The like results for TNPDLYPVRRIDGLTDVSQIITVT [IQUB] were, in that order, 2.86 ± 0.26 and 3.06 ± 0.26.
Consider TPCGPAQACMGGRCLHMDQLQDFN [ADAMTS4], for which the protein stability index reads like this: under setting [1], 2.63 ± 0.25; under setting [2], 2.75 ± 0.17.
In the case of TPKAAWIREEGRCSSSDDDTDVDM [PBXIP1], the protein stability index was found to be 5.4 ± 0.32 under setting [1] and 5.19 ± 0.38 under setting [2].
With TPLLMAARYGHLDMVEFLLEQCSA [FEM1C], the protein stability index reads like this: under setting [1], 2.28 ± 0.41; under setting [2], 2.26 ± 0.24.
TPLLNGSSQDRMFETMAIEIEQLL [GOSR1]: the protein stability index runs as follows: under setting [1], 3.06 ± 0.27; under setting [2], 3.28 ± 0.23.
As for TPPTTTAEIATASASASTTTTVTA [SNAP91], the protein stability index is, setting by setting: under setting [1], 5.39 ± 0.15; under setting [2], 5.3 ± 0.13.
Turning to TPQPTALTFAKSSWARQESLQERK [AUP1], the protein stability index runs as follows: under setting [1], 4.43 ± 0.14; under setting [2], 4.48 ± 0.19.
In the case of TQSDEENGRACEMNGEECAEDLRM [IKZF1], the protein stability index came to 5.66 ± 0.28 under setting [1] and 5.66 ± 0.19 under setting [2].
For TRKLSPGKKRCKDIKRLLVNFMYL [SMG5], in that order: 2.53 ± 0.45 and 2.62 ± 0.48.
The like results for TRQLSEENANLQEYVEKETQEKKR [MTUS2] were, in that order, 5.33 ± 0.14 and 5.56 ± 0.12.
On to TSGMGFHAPKIGSNGVEMAAKFPS [SDE2], for which the protein stability index reads like this: under setting [1], 3.53 ± 0.28; under setting [2], 3.5 ± 0.27.
TSHSLPESSVPSTVGCSSQHTPDQ [PLEKHN1]: the protein stability index by setting is: under setting [1], 5.36 ± 0.17; under setting [2], 5.28 ± 0.16.
Turning to TSNGWGVTDCKHTEDVGVVCSDKR [LOXL2], the protein stability index under setting [1] turned out to be 4.57 ± 0.092 and the protein stability index under setting [2] turned out to be 4.46 ± 0.41.
For TSTVNSAREELMESRMRIESLSSQ [LMNB1], in that order: 4.54 ± 0.15 and 4.51 ± 0.18.
For TSYYIRYRGAVYADSGNFKRCINL [FEM1C], the protein stability index reads like this: under setting [1], 2.48 ± 0.51; under setting [2], 2.33 ± 0.57.
For TTEKQRLVKKLQDSVLERWVNDPQ [GOLPH3L], in that order: 3.71 ± 0.25 and 4.05 ± 0.076.
With TVERPFYDLWASDNPLDRPLVGQD [NOP53], the protein stability index turned out to be 4.09 ± 0.37 under setting [1] and 4.2 ± 0.15 under setting [2].
The like results for TWVPMFLSTLLAPYQALRLWARGT [SOAT2] were, in that order, 2.81 ± 0.48 and 2.72 ± 0.64.
For TWYLKTIDICHDHFGWYLGWGDCV [DHCR7], in that order: 3.01 ± 0.34 and 3.1 ± 0.53.
The like results for TYLSKVDPDGKKIKQIQQLFEEIL [FBXO33] were, in that order, 2.25 ± 0.24 and 1.84 ± 0.26.
